Like-named read-outs stand apart in the source and are kept apart here.
B1: AP4-29E10: murine monoclonal antibody raised against AP4 lactone hapten (antibody, V domains shown)
VH: EVQLQQSGPELEKPGASVKISCKASGHSFTGYNMNWVKQSNDKSLEWIGNIAPYYGVTAYNQKFKGKATLTGDKSSSTAYMQLKSLASEDSAVYYCVLDTSGYASWGQGTLVTVSA
VL: DIVMTQATASLTVSLGQRATISCRASKSVSTSGYSYMHWYQQKPGQPPKLLIYLASNLESGVPARFSGSGSGTDFTLNIHPVEEEDAATYYCQHSREVPYTFGGGTKLELK
B2: AP4-4-20: anti-AIP4 human scFv from phage display, expressed in E. coli; probably AP4-20, SEQ ID NO: 53 (protein, listed as Homo sapiens)
scFv: QVQLQQSGAGLLRPSETLSLTCGLYGGSFSGHYWNWIRQSPEKGLVWIGEITHSGTTNYNPSLKSRVITSVDTSKNQYSLKLSFVTPADTAVYYCARGDYYGYWYFDLWGRGTLVTVSSGGGGSGGGGSGGGGSQSVLTQPPSVPVAPGQKVTISCSGSSSNIGNNYVSWYQQLPGTAPKLLIYDTNKRPSGIPDRFAGSKSGTSATLGITGLQTGDEADYYCGTWDSSLSAGVFGGGTKLTVL

What was measured:
[1] = biological target: AIP-1; assay: Competition ELISA (free native AIP against hapten-BSA coated plates); type: binding, S. aureus; conditions: AP4-BSA coated plates
[2] = biological target: AIP-2; assay: as above; type: binding, S. aureus; conditions: AP4-BSA coated plates
[3] = biological target: AIP-3; assay: as above; type: binding, S. aureus
Method: (§1) The optimal concentrations of the AP4-BSA conjugate as well as of each mAb were determined. 96 well ELISA plates were coated with the appropriate amount of AP4-BSA conjugate respectively. The plates were blocked with 4% skim milk, washed and mAbs were added at the predetermined optimal concentration. The plates were washed and free antigen, i.e. the native AIPs 1-4, was added to the wells in a concentration series starting at 100 μM. The plate was incubated for 1 hour at 37° C., thoroughly washed, and goat anti-mouse-horseradish peroxidase (HRP) conjugate (Pierce, Rockford, Ill.) was added. After an incubation period of 1 hour at RT, the plate was thoroughly washed again and the HRP substrate (TMB substrate kit; Pierce) was added, the reaction was allowed to develop for 15 minute and stopped by the addition of 2 M H2SO4. The absorbance at 450 nm was read and the values plotted using GraFit (Erithacus Software Ltd). The free antigen concentration at which the absorbance value is 50% of the maximum absorbance was considered the Kd of the antibody for its antigen.
as §1, with “For the competition ELISA analysis, the optimal concentrations” for “The optimal concentrations”, “of the AP1-BSA, AP3-BSA, or AP4-BSA conjugate,” for “of the AP4-BSA conjugate”, “or AP4-BSA conjugate, as well” for “the AP4-BSA conjugate as well”, “amount of AP1-BSA, AP3-BSA, or AP4-BSA conjugate” for “amount of AP4-BSA conjugate”, “blocked with 4 v % skim milk,” for “blocked with 4% skim milk,”, “for 15 minutes and stopped” for “for 15 minute and stopped”

[4] = biological target: AIP-4; assay: as above; type: binding, S. aureus
Method: as §1
as §1, with “For the competition ELISA analysis, the optimal concentrations” for “The optimal concentrations”, “of the AP1-BSA, AP3-BSA, or AP4-BSA conjugate,” for “of the AP4-BSA conjugate”, “or AP4-BSA conjugate, as well” for “the AP4-BSA conjugate as well”, “amount of AP1-BSA, AP3-BSA, or AP4-BSA conjugate” for “amount of AP4-BSA conjugate”, “blocked with 4 v % skim milk,” for “blocked with 4% skim milk,”, “for 15 minutes and stopped” for “for 15 minute and stopped”

[5] = test system: S. aureus RN4850; type: cell-based

| Molecule | Kd ([1]; AP4 Sups, competing hybridomas re-tested, average, read-out: AIP1 wt) | Kd ([1]; selected AP4 mAbs, average of at least two measurements, read-out: Binding constant, AIP-1) | Kd ([2]; AP4 Sups, read-out: AIP2 wt) | Kd ([2]; selected AP4 mAbs, average of at least two measurements, read-out: Binding constant, AIP-2) | Kd ([3]; AP4 Sups, read-out: AIP3 wt) | Kd ([3]; selected AP4 mAbs, average of at least two measurements, read-out: Binding constant, AIP-3) | Kd ([4]; AP4 Sups, AP4-BSA coated plates, competing hybridomas re-tested, average, read-out: AIP4 wt) | Kd ([4]; AP4 Sups, tested 5 different times, read-out: AIP4 Kd, variability over 5 different tests) | Kd ([4]; selected AP4 mAbs, AP4-BSA coated plates, average of at least two measurements, read-out: Binding constant, AIP-4) | hemolysins secretion (α-hemolysin western analysis) [5] |
| --- | --- | --- | --- | --- | --- | --- | --- | --- | --- | --- |
| B1 | ~3000 nM | ~3000 nM | > 25000 nM | > 25000 nM | > 25000 nM | > 25000 nM | ~24 nM | 2 to 110 nM | ~24 nM | – |
| B2 | – | – | – | – | – | – | – | – | – | clear reduction in hemolysins secretion |

From patent US9394371B2, “Antibody-mediated disruption of quorum sensing in bacteria” (The Scripps Research Institute, priority 2007, dated 2016)
